Test [1] has as its target SspB-C-term (bacteriophage T7) (UniProt P0AFZ3). In words: cell-based or functional assay.
The target of test [2] is FKBP-C-term (bacteriophage T7) (UniProt P62942). In words: cell-based or functional assay.
The target of test [3] is T1, C-term RNAP (WT) (bacteriophage T7, UniProt P00573 180-883).
T1 construct: C-terminal half of T7 RNAP split at position 179, without a fusion partner; expressed in E. coli; A start codon for the unfused half is not described; also called C-terminal split RNAP; C-terminal T7 RNAP
T1 sequence (P00573 180-883 limits assumed): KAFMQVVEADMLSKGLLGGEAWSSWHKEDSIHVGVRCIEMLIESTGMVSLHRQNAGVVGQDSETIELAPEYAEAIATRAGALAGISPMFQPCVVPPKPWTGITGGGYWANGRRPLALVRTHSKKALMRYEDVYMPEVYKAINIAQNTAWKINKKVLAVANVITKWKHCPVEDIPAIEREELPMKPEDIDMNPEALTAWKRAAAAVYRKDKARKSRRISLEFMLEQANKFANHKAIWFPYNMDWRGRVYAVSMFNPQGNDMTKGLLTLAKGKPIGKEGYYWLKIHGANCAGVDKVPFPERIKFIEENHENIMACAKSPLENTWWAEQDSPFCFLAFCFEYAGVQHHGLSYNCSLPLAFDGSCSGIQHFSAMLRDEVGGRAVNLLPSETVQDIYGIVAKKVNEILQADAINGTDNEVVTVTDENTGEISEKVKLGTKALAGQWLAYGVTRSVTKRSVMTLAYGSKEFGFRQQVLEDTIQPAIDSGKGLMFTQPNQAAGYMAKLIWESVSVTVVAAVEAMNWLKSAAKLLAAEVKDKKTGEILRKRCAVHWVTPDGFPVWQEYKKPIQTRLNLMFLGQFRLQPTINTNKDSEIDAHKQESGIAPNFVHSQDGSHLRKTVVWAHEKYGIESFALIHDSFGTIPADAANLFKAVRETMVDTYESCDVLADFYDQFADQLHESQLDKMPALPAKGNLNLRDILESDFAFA
The experiment in a line: E. coli luciferase transcription reporter (split T7 RNAP complementation). The text has this:
(§1) In vivo transcription assays of split RNAPs. N- and C-terminal halves of the RNAP were cloned into expression vectors, with the N-terminal RNAP under a constitutive promoter and the C-terminal RNAP under the arabinose-inducible promoter (Supplementary FIG. 1). S1030 cells (Carlson, et al., 2014) were transformed by electroporation with three plasmids: (i) an N-terminal RNAP expression plasmid, (ii) a C-terminal expression plasmid, and (iii) a reporter plasmid that encodes luciferase under control of the T7 promoter. The transformed cells were then plated onto agar plates (15 g/L in LB) with 50 μg/mL carbenicillin, 50 μg/mL spectinomycin, 33 μg/mL chloramphenicol, and 10 mM glucose. […] After growth with shaking at 37° C. for 2 h, 150 μL of each culture was transferred to a 96-well black wall, clear bottom plate (Costar), and luminescence and OD600 was measured on a Synergy H4 Hybrid Reader (BioTek). The data were analyzed by dividing the luminscence values by the background-corrected OD600 value, then subtracting out the background from the reporter vector alone. All values were then normalized to the wild-type split RNAP fused to ZA and ZB (data shown in FIG. 1d), which was assigned an arbitrary value of 100, allowing the values from each luminescence plot to be compared to one another. […]

The target of test [4] is T2, C-ZB (bacteriophage T7, UniProt P00573 180-883).
T2 construct: also called C-terminal RNAP fused to ZB; ZB-fused C-terminal RNAP
T2 sequence (P00573 180-883, tags or fused parts left off): as the sequence (P00573 180-883 limits assumed) above
The description is as above.
Text: as §1

In test [5] the target is T2, C-ZB. The experiment in a line: cell-based or functional assay.

SspB-C-term (bacteriophage T7), sequence (P0AFZ3 6-116, tags or fused parts left off): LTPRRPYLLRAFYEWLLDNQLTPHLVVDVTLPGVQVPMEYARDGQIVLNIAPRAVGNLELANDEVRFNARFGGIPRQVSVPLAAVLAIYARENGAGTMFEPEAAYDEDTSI
FKBP-C-term (bacteriophage T7), sequence (P62942 1-108, tags or fused parts left off): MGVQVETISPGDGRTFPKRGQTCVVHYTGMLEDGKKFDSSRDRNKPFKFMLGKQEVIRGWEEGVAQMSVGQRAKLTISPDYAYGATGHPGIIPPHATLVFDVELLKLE

Turning to N-term-iLID, the transcriptional output (luciferase reporter, E. coli), blue LED light against dark in test [1] was found to be 26 fold.

In test [2], “N-term-FRB (from UniProt P42345 2021-2113)” registered an RNA synthesis in the in vivo luciferase transcription reporter assay (E. coli), with rapamycin of 340 fold.

B1: N-term RNAP (WT) (enzyme)
chain: MNTINIAKNDFSDIELAAIPFNTLADHYGERLAREQLALEHESYEMGEARFRKMFERQLKAGEVADNAAAKPLITTLLPKMIARINDWFEEVKAKRGKRPTAFQFLQEIKPEAVAYITIKTTLACLTSADNTTVQAVASAIGRAIEDEARFGRIRDLEAKHFKKNVEEQLNKRVGHVYK
notes: N-terminal half of T7 RNAP split at position 179, without a fusion partner; expressed in E. coli; also called N-terminal split RNAP; N-terminal T7 RNAP
Regarding B1, the binding result in test [3] and in test [4] was “binds” each time.

B2: N-ZA (other)
chain: MNTINIAKNDFSDIELAAIPFNTLADHYGERLAREQLALEHESYEMGEARFRKMFERQLKAGEVADNAAAKPLITTLLPKMIARINDWFEEVKAKRGKRPTAFQFLQEIKPEAVAYITIKTTLACLTSADNTTVQAVASAIGRAIEDEARFGRIRDLEAKHFKKNVEEQLNKRVGHVYKGGSGSGSSALKKELQANKKELAQLKWELQALKKELAQ
As to B2, in test [5], the “transcription (luciferase reporter under the T7 promoter, E. coli)” value was about 5 fold.
